Where a chain is given by its changes, count along the chain named. Names and notes keep the numbering of the source.
Assays:
[1] = target: T1, recombinant IL-2Rβγ heterodimer (human); test: ELISA, IL-2Rβγ-Fc heterodimer coated
T1 construct: IL-2Rβ ECD at the N-terminus of Fc hole chain, γc ECD at the N-terminus of Fc knob chain; also called recombinant IL-2Rβγ protein; dimeric IL-2Rβγ receptor
T1 chain 1: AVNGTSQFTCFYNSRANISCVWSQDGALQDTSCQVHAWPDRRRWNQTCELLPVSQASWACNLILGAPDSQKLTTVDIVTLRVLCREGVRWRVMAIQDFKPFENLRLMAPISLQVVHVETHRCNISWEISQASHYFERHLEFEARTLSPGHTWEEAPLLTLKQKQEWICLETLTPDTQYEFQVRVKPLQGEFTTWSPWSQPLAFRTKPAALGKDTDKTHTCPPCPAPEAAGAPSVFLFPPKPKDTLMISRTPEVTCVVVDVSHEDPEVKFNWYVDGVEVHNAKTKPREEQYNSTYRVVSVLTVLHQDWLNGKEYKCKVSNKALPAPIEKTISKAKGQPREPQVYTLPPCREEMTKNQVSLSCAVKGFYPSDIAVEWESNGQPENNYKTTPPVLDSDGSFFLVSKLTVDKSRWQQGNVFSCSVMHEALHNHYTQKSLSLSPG
T1 chain 2: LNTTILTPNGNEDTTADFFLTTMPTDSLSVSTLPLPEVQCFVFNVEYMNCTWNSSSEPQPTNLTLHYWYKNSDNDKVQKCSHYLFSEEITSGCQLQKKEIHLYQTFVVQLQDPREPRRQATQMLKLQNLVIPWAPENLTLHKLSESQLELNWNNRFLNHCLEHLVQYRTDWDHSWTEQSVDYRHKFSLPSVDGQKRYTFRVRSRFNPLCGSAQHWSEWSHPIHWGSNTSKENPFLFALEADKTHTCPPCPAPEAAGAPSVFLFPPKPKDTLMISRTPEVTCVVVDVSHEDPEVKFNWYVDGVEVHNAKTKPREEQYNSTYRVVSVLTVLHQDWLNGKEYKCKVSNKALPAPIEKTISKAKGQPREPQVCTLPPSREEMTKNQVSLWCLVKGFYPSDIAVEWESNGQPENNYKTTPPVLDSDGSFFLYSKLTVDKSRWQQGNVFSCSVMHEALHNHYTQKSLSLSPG
Description: After overnight incubation at 4° C. and blocking with 1% BSA, 3-fold serial dilutions of IL-2 Fc fusion proteins starting at 10 nM were added to each well at 100 μl/well. […] Subsequently, 100 μl/well of streptavidin-HRP (1:5000 diluted in diluent) were added to each well and incubated at room temperature for 40 min. Wells were thoroughly aspirated and washed three times with PBS/0.05% Tween-20 following each step. Finally, 100 μl TMB substrate was added to each well; the plate was developed at room temperature in the dark for 10 minutes, and 100 μl/well of stop solution (2N Sulfuric acid, Ricca Chemical) was added. Absorbance was determined at 450 nm and curves were fit using Prism software (GraphPad).

[2] = target: T2, IL-2Rβγ on human CD8+ T cells, NK cells and CD4+ T cells (human, UniProt P14784 27-551; P31785 23-369); test: cell-based or functional assay
T2 sequence (looked up) 1: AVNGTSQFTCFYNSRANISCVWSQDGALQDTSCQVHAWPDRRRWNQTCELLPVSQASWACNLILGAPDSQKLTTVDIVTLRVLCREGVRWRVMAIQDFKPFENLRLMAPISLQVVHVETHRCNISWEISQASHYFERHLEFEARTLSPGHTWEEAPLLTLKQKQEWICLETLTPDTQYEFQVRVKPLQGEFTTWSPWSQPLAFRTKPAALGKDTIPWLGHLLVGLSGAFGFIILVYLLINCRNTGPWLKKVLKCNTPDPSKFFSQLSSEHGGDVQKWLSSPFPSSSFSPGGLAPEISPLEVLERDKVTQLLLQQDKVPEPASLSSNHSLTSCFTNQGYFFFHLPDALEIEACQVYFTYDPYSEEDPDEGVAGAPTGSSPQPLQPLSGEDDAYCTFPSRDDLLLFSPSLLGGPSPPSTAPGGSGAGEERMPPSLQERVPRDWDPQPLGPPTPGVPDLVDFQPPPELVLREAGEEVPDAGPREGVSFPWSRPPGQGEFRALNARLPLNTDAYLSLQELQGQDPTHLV
T2 sequence (looked up) 2: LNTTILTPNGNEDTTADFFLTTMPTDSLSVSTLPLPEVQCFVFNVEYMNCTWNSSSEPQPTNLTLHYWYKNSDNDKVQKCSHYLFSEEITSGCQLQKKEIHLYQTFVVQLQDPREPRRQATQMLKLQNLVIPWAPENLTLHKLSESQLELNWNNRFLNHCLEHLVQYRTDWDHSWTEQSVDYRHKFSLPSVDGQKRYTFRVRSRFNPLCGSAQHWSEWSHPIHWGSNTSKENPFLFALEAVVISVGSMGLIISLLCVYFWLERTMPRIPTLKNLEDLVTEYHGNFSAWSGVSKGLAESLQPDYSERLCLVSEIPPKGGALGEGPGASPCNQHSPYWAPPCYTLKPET

[3] = target: T3, PD1 expressed on cell surface (UniProt Q15116 25-288, limits assumed); test: FACS on PD-1-expressing cells
T3 construct: whole, on cells; also called PD-1-expressing cells; cell surface expressed PD-1
T3 sequence (Q15116 25-288 limits assumed): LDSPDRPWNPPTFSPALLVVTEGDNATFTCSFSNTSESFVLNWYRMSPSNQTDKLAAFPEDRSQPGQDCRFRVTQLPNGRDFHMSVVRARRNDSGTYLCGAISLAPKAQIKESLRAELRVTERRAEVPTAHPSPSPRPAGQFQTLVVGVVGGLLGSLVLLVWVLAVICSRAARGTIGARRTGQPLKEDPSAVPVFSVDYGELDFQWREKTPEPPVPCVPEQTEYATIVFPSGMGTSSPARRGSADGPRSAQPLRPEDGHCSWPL

[4] = target: PD-1 on PD-1 positive T cells (Tregs) of human PBMC (human, UniProt Q15116 25-288); test: cell-based or functional assay
Sequence of PD-1 on PD-1 positive T cells (Tregs) of human PBMC (Q15116 25-288): as the sequence (Q15116 25-288 limits assumed) above

[5] = target: huPD-1-His (human, UniProt Q15116 25-167, limits assumed); test: ELISA, huPD-1-His coated
Sequence of huPD-1-His (Q15116 25-167 limits assumed): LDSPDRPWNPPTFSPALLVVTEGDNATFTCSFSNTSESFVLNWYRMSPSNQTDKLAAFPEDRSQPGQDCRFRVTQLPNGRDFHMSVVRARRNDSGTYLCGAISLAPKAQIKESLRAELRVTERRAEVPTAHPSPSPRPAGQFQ
Description: A panel of IL-2 muteins was expressed as C-terminal fusions to the Fc homodimer of Fc heterodimer and screened for binding to IL-2Rα in enzyme-linked immunosorbent assay (ELISA). Briefly, IL-2Rα-ECD (SEQ ID NO: 5) was coated onto the wells of Nunc Maxisorp 96-well microplates at 0.1 μg/well. After overnight incubation at 4° C. and blocking with superblock (Thermo Fisher), 3-fold serial dilutions of IL-2 Fc fusion proteins starting at 100 nM were added to each well at 100 μI/well. Following one-hour incubation at room temperature, 100 μl/well of goat anti-human IgG Fc-HRP (1:5000 diluted in diluent) were added to each well and incubated at room temperature for 1 hour. Wells were thoroughly aspirated and washed three times with PBS/0.05% Tween-20 following each step. Finally, 100 μl TMB substrate was added to each well; the plate was developed at room temperature in the dark for 10 minutes, and 100 μl/well of stop solution (2N Sulfuric acid, Ricca Chemical) was added. Absorbance was determined at 450 nm and curves were fit using Prism software (Graph Pad).
(§1) For direct binding, the same ELISA protocol in Example 4 was followed using huPD-1-His as the coating antigen. […] Briefly, plate was coated with 0.2 μg/well of human PD1-Fc protein at 4° C. for overnight. […] Streptavidin-HRP was added as the secondary antibody.

[6] = target: human PD1-Fc protein (human, UniProt Q15116 25-167, limits assumed); test: competition ELISA, human PD1-Fc coated, biotinylated Human PDL1-Fc at 0.5 µg/mL as the ligand displaced
Sequence of human PD1-Fc protein (Q15116 25-167 limits assumed): as above
Description: as §1

B1: P-0731 (Fc fusion)
chain 1: DKTHTCPPCPAPEAAGAPSVFLFPPKPKDTLMISRTPEVTCVVVDVSHEDPEVKFNWYVDGVEVHNAKTKPREEQYNSTYRVVSVLTVLHQDWLNGKEYKCKVSNKALPAPIEKTISKAKGQPREPQVCTLPPSREEMTKNQVSLWCLVKGFYPSDIAVEWESNGQPENNYKTTPPVLDSDGSFFLYSKLTVDKSRWQQGNVFSCSVMHEALHNHYTQKSLSLSPGGGGSGGGSAPTSSSTKKTQLQLEHLLHDLQMILNGINNYKNPKLTRMLTFKFYMPKKATELKHLQCLEEELKRLEEVLNLAQSKNFHLRPRDLISNINVIVLELKGSETTFMCEYADETATIVEFLNRWITFIQSIISTLT
chain 2: DKTHTCPPCPAPEAAGAPSVFLFPPKPKDTLMISRTPEVTCVVVDVSHEDPEVKFNWYVDGVEVHNAKTKPREEQYNSTYRVVSVLTVLHQDWLNGKEYKCKVSNKALPAPIEKTISKAKGQPREPQVYTLPPCREEMTKNQVSLSCAVKGFYPSDIAVEWESNGQPENNYKTTPPVLDSDGSFFLVSKLTVDKSRWQQGNVFSCSVMHEALHNHYTQKSLSLSPG
notes: knob chain carries the IL-2 variant; hole-Fc; monovalent; also called IL-2 L19H/P65R/S125I monovalent Fc fusion
- binding result [1]: binds
- fold decrease in Ki67 expression on human CD8+ T cells (potency against P-0704) [2]: ~30 fold
- fold decrease in proliferation (Ki67) of human CD8+ T cells, NK cells and CD4+ T cells (potency against P-0704) [2]: 30 fold

B2: P-0759 (Fc fusion)
chain 1: B1 chain 1 with H253Q
chain 2: B1 chain 2
notes: knob chain carries the IL-2 variant; hole-Fc; monovalent; also called IL-2 L19Q/P65R/S125I monovalent Fc fusion
- binding result [1]: binds
- binding result [3]: no binding

B3: P-0761 (Fc fusion)
chain 1: B1 chain 1 with H253Y
chain 2: B1 chain 2
notes: knob chain carries the IL-2 variant; hole-Fc; monovalent; also called IL-2 L19Y/P65R/S125I monovalent Fc fusion
- binding result [1]: binds

B4: P-0803 (antibody, human IgG1, kappa)
heavy 1: not shown
heavy 2: EVQLVESGGGLVKPGGSLRLSCAASGFTFSSYDMSWVRQAPGKGLEWVATISGGGSYTYYPDSVKGRFTISRDNAKNSLYLQMNSLRAEDTAVYYCASPDSSGVAYWGQGTLVTVSSASTKGPSVFPLAPSSKSTSGGTAALGCLVKDYFPEPVTVSWNSGALTSGVHTFPAVLQSSGLYSLSSVVTVPSSSLGTQTYICNVNHKPSNTKVDKKVEPKSCDKTHTCPPCPAPEAAGAPSVFLFPPKPKDTLMISRTPEVTCVVVDVSHEDPEVKFNWYVDGVEVHNAKTKPREEQYNSTYRVVSVLTVLHQDWLNGKEYKCKVSNKALPAPIEKTISKAKGQPREPQVYTLPPCREEMTKNQVSLSCAVKGFYPSDIAVEWESNGQPENNYKTTPPVLDSDGSFFLVSKLTVDKSRWQQGNVFSCSVMHEALHNHYTQKSLSLSPG
light: DIVMTQSPLSLPVTPGEPASITCKASQDVETVVAWYLQKPGQSPRLLIYWASTRHTGVPDRFSGSGSGTDFTLKISRVEAEDVGVYYCQQYSRYPWTFGQGTKLEIKRTVAAPSVFIFPPSDEQLKSGTASVVCLLNNFYPREAKVQWKVDNALQSGNSQESVTEQDSKDSTYSLSSTLTLSKADYEKHKVYACEVTHQGLSSPVTKSFNRGEC
notes: also called IL-2 P65R/S125I human PD-1 antibody fusion, (G3S)2 linker
- pSTAT5 in PD-1 positive T cells (human PBMC), potency against P-0782 [4]: > 15 fold
- EC50 [5]: 0.6 nM
- IC50 [6]: 2.1 nM

B5: P-0795 (antibody, human IgG1, kappa, V domains shown)
VH: EVQLVESGGGLVKPGGSLRLSCAASGFTFSSYDMSWVRQAPGKGLEWVATISGGGSYTYYPDSVKGRFTISRDNAKNSLYLQMNSLRAEDTAVYYCASPDSSGVAYWGQGTLVTVSS
VL: DIVMTQSPLSLPVTPGEPASITCKASQDVETVVAWYLQKPGQSPRLLIYWASTRHTGVPDRFSGSGSGTDFTLKISRVEAEDVGVYYCQQYSRYPWTFGQGTKLEIKR
notes: full heavy and light chains; also called human PD-1 antagonist antibody; hPD1 antibody
- EC50 [5]: 0.6 nM
- IC50 [6]: 2.1 nM

Reference: patent US20220235109A1 (CUGENE, published 2022)
